The record followed here is US20210154165.

The series addresses ARID1A (endogenous, ARID1A-wildtype cancer cell lysate) (UniProt O14497).
UniProt O14497, sequence (O14497 whole entry, looked up): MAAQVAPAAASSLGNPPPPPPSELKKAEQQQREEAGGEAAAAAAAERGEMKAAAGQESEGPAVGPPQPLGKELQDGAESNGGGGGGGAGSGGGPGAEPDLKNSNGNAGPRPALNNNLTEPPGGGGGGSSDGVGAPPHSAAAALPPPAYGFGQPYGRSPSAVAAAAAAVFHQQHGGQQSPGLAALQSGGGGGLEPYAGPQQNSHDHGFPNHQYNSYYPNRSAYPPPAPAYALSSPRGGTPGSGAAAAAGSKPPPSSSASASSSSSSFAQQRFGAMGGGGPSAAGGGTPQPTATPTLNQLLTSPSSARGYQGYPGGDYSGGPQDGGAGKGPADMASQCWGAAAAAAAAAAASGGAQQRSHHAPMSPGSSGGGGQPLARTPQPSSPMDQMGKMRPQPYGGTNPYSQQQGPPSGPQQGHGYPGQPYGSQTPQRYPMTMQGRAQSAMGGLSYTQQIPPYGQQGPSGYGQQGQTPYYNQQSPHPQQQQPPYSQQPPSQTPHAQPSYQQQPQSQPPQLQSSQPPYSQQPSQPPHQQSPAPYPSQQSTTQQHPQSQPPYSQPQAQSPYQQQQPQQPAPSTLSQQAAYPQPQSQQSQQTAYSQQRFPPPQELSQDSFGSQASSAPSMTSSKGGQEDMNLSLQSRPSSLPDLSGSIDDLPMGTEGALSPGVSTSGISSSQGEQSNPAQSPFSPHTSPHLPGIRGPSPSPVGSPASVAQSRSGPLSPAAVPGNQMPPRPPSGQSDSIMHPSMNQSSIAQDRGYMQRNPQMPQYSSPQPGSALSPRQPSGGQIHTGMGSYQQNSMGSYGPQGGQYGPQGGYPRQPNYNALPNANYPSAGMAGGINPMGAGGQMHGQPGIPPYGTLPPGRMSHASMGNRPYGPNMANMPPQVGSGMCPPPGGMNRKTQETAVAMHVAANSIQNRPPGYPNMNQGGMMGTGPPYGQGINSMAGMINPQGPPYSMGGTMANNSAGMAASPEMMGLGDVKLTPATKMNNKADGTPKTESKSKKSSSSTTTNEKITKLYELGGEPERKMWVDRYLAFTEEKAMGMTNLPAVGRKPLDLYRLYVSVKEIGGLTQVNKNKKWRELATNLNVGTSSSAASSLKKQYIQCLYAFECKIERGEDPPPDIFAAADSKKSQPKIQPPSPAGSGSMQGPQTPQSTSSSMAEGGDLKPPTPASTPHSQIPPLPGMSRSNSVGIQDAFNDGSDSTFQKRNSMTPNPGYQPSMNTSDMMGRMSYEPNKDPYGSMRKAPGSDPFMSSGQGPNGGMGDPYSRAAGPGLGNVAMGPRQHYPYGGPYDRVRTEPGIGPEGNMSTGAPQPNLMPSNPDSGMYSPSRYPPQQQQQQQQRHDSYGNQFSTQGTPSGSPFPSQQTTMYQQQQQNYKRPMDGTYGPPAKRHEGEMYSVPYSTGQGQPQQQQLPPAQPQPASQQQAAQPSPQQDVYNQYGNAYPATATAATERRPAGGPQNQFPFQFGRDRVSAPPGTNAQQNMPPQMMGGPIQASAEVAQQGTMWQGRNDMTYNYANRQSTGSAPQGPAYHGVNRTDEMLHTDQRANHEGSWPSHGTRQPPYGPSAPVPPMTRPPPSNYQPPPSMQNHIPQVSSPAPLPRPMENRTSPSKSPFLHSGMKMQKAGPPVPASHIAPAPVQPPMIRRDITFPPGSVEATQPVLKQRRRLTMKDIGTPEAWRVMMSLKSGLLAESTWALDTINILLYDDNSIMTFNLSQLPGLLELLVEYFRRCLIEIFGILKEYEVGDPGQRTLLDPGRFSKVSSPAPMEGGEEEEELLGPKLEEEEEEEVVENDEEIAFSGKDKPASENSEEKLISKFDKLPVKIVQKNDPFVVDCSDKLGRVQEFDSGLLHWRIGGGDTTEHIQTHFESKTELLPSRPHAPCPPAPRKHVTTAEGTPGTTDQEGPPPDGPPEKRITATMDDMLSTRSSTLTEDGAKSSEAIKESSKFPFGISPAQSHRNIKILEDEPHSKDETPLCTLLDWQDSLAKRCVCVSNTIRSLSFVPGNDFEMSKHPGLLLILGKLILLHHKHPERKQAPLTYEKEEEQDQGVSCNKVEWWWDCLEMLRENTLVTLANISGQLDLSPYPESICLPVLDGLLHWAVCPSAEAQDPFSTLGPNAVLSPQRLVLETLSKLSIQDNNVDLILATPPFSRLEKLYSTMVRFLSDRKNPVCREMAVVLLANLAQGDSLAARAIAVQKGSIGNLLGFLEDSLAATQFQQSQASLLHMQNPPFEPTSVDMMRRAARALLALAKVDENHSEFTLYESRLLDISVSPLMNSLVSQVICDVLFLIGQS

Consider “Carbamoyl-phosphate synthetase 2, Aspartate transcarbamoylase, and Dihydroorotase (CAD) (endogenous)”, for which the “total CAD and phosphorylated CAD (Serine-1859) protein levels by immunoblot after ARID1A knockdown or restoration” value is “wildtype ARID1A functions as a negative regulator of CAD, wherein ARID1A deficiency results in an increase in total and phosphorylated CAD”.
